# B1: Pyridoxal 5'-phosphate synthase subunit PDX1.3 (Arabidopsis thaliana (Mouse-ear cress)), Q8L940 (parent)
# chain: MEGTGVVAVYGNGAITEAKKSPFSVKVGLAQMLRGGVIMDVVNAEQARIAEEAGACAVMALERVPADIRAQGGVARMSDPQMIKEIKQAVTIPVMAKARIGHFVEAQILEAIGIDYIDESEVLTLADEDHHINKHNFRIPFVCGCRNLGEALRRIREGAAMIRTKGEAGTGNIIEAVRHVRSVNGDIRVLRNMDDDEVFTFAKKLAAPYDLVMQTKQLGRLPVVQFAAGGVATPADAALMMQLGCDGVFVGSGIFKSGDPARRARAIVQAVTHYSDPEMLVEVSCGLGEAMVGINLNDEKVERFANRSE
# partner: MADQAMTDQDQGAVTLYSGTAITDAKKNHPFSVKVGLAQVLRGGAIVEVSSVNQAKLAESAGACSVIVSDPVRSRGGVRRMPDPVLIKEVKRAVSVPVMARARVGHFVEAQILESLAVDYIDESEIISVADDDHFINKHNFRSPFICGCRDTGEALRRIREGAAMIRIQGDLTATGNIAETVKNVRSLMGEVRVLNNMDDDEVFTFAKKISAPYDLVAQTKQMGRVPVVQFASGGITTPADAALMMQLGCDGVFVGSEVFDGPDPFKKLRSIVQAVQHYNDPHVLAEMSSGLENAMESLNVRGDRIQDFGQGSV
# B2: Pyridoxal 5'-phosphate synthase subunit PDX1.3 (Arabidopsis thaliana (Mouse-ear cress)), Q8L940 (parent)
# chain: B1 chain
# partner: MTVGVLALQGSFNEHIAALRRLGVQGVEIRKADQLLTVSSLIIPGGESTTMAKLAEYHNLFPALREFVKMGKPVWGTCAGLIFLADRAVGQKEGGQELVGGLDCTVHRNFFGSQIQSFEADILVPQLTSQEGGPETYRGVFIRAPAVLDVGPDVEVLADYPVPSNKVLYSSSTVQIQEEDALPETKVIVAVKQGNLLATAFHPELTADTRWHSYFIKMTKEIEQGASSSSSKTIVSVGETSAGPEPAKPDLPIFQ
# B3: Pyridoxal 5'-phosphate synthase subunit PDX1.3 (Arabidopsis thaliana (Mouse-ear cress)), Q8L940 (parent)
# chain: B1 chain
# partner: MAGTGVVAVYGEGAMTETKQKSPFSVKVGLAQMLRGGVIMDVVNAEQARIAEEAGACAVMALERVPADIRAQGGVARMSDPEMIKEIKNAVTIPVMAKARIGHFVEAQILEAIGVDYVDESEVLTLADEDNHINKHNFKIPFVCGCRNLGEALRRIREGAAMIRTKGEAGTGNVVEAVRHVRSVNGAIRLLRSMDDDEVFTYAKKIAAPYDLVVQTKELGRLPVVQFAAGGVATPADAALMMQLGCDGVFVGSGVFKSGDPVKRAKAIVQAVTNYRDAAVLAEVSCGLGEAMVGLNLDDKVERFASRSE
# Variants of: B1
# Settings: with pdx12_arath PDX12, Q9ZNR6
row,Variant,effect of a mutation on the interaction
1,MEGTGVVAVYGNGAITEAKKSPFSVKVGLAQMLRGGVIMDVVNAEQARIAEEASACAVMALERVPADIRAQGGVARMSDPQMIKEIKQAVTIPVMAKARIGHFVEAQILEAIGIDYIDESEVLTLADEDHHINKHNFRIPFVCGCRNLGEALRRIREGAAMIRTKGEAGTGNIIEAVRHVRSVNGDIRVLRNMDDDEVFTFAKKLAAPYDLVMQTKQLGRLPVVQFAAGGVATPADAALMMQLGCDGVFVGSGIFKSGDPARRARAIVQAVTHYSDPEMLVEVSCGLGEAMVGINLNDEKVERFANRSE [G54S],disrupting interaction

# Variants of: B2
# Settings: with pdx2_arath PDX2, Q8LAD0
row,Variant,effect of a mutation on the interaction
1,MEGTGVVAVYGNGAITEAKKSPFSVKVGLAQMLRGGVIMDVVNAEQARIAEEASACAVMALERVPADIRAQGGVARMSDPQMIKEIKQAVTIPVMAKARIGHFVEAQILEAIGIDYIDESEVLTLADEDHHINKHNFRIPFVCGCRNLGEALRRIREGAAMIRTKGEAGTGNIIEAVRHVRSVNGDIRVLRNMDDDEVFTFAKKLAAPYDLVMQTKQLGRLPVVQFAAGGVATPADAALMMQLGCDGVFVGSGIFKSGDPARRARAIVQAVTHYSDPEMLVEVSCGLGEAMVGINLNDEKVERFANRSE [G54S],disrupting interaction

# Variants of: B3
# Settings: with pdx11_arath PDX11, O80448
row,Variant,effect of a mutation on the interaction
1,MEGTGVVAVYGNGAITEAKKSPFSVKVGLAQMLRGGVIMDVVNAEQARIAEEASACAVMALERVPADIRAQGGVARMSDPQMIKEIKQAVTIPVMAKARIGHFVEAQILEAIGIDYIDESEVLTLADEDHHINKHNFRIPFVCGCRNLGEALRRIREGAAMIRTKGEAGTGNIIEAVRHVRSVNGDIRVLRNMDDDEVFTFAKKLAAPYDLVMQTKQLGRLPVVQFAAGGVATPADAALMMQLGCDGVFVGSGIFKSGDPARRARAIVQAVTHYSDPEMLVEVSCGLGEAMVGINLNDEKVERFANRSE [G54S],disrupting interaction
